For assay [1], the target named is HLA-A*30:01. Nature of the assay: IEDB peptide-MHC binding, purified MHC/competitive/fluorescence; filed as Kd, often an IC50 or EC50 that approximates it; ≥ and ≤ were set here for values at or beyond the usual limits of such assays.
For assay [2], the target named is HLA-A*01:01. The description is as above. The settings on record: source organism: Homo sapiens.
In assay [3] the target is HLA-A*80:01. Nature of the assay: IEDB peptide-MHC binding, purified MHC/direct/fluorescence; filed as Kd, often an IC50 or EC50 that approximates it; ≥ and ≤ were set here for values at or beyond the usual limits of such assays.
The target of assay [4] is HLA-A*02:03. Described as above.
The target in assay [5] is HLA-B*15:01. The assay is described as above.
For assay [6], the target named is HLA-A*11:01. The description is as above.
The target in assay [7] is HLA-B*27:05. Described as above.
For assay [8], the target named is HLA-B*07:02. The assay is described as above.
Assay [9] has as its target HLA-A*02:19. The assay is described as above.
In assay [10] the target is HLA-A*31:01. The description is as above.
Assay [11] concerns the target HLA-A*03:01. Described as above.
The target of assay [12] is HLA-A*02:06. The description is as above.
Assay [13] addresses HLA-B*46:01. Described as above. As to conditions: source organism: Brucella melitensis.
For assay [14], the target named is HLA-B*44:02. Described as above.
Assay [15] deals with HLA-A*02:12. The description is as above.
Assay [16] deals with HLA-B*40:01. The assay is described as above.
The target of assay [17] is HLA-A*24:02. Described as above.
The target in assay [18] is HLA-A*01:01. Described as above.
The target in assay [19] is HLA-A*02:01. Described as above.
Assay [20] deals with HLA-B*58:01. The assay is described as above.
Assay [21] addresses HLA-A*23:01. The description is as above. The settings on record: source organism: Amur virus.
Assay [22] addresses HLA-A*24:03. The assay is described as above. As to conditions: source organism: Amur virus.
For assay [23], the target named is HLA-A*29:02. The assay is described as above. The settings on record: source organism: Mammarenavirus machupoense.
The target of assay [24] is HLA-B*15:42. In words: IEDB peptide-MHC binding, purified MHC/competitive/fluorescence; filed as Kd, often an IC50 or EC50 that approximates it; ≥ and ≤ were set here for values at or beyond the usual limits of such assays.
Assay [25] addresses HLA-B*83:01. The description is as above.
The target in assay [26] is HLA-B*45:06. The description is as above.
Assay [27] addresses HLA-A*26:01. In words: IEDB peptide-MHC binding, purified MHC/competitive/radioactivity; filed as Kd, often an IC50 or EC50 that approximates it; ≥ and ≤ were set here for values at or beyond the usual limits of such assays. The settings on record: source organism: Mammarenavirus lassaense.
Assay [28] has as its target HLA-A*32:01. The description is as above.
The target of assay [29] is HLA-A*30:02. Described as above. As to conditions: source organism: Mammarenavirus lassaense.
The target in assay [30] is HLA-A*29:02. Described as above. As to conditions: source organism: Mammarenavirus lassaense.
Assay [31] concerns the target HLA-A*30:01. The assay is described as above. As to conditions: source organism: Mammarenavirus lassaense.
Assay [32] concerns the target HLA-A*69:01. Nature of the assay: IEDB peptide-MHC binding, purified MHC/direct/fluorescence; filed as Kd, often an IC50 or EC50 that approximates it; ≥ and ≤ were set here for values at or beyond the usual limits of such assays. As to conditions: source organism: Yersinia enterocolitica.
For assay [33], the target named is HLA-C*06:02. The description is as above. As to conditions: source organism: Yersinia pestis Nepal516.
The target in assay [34] is HLA-A*02:11. The assay is described as above. The settings on record: source organism: Salmonella enterica subsp. arizonae serovar 62:z4,z23:-.
For assay [35], the target named is HLA-B*08:01. Described as above. As to conditions: source organism: Salmonella enterica subsp. arizonae serovar 62:z4,z23:-.
Assay [36] concerns the target HLA-A*24:03. In words: IEDB peptide-MHC binding, purified MHC/competitive/fluorescence; filed as Kd, often an IC50 or EC50 that approximates it; ≥ and ≤ were set here for values at or beyond the usual limits of such assays. The settings on record: source organism: Encephalitozoon cuniculi GB-M1.
The target in assay [37] is HLA-A*32:07. The description is as above. The settings on record: source organism: dengue virus type 4.
Assay [38] has as its target HLA-A*68:23. The assay is described as above. As to conditions: source organism: dengue virus type 4.
In assay [39] the target is HLA-A*32:15. The assay is described as above. The settings on record: source organism: dengue virus type 4.
The target of assay [40] is HLA-C*14:02. The assay is described as above. As to conditions: source organism: dengue virus type 4.
In assay [41] the target is HLA-B*57:01. In words: IEDB peptide-MHC binding, purified MHC/direct/fluorescence; filed as Kd, often an IC50 or EC50 that approximates it; ≥ and ≤ were set here for values at or beyond the usual limits of such assays. As to conditions: source organism: dengue virus type 4.
For assay [42], the target named is HLA-B*15:17. The assay is described as above. The settings on record: source organism: dengue virus type 4.
The mark [43] stands for this setting: source organism: Brucella ovis ATCC 25840.
Setting [44] is: source organism: Brucella melitensis.
The mark [45] stands for this setting: source organism: Mammarenavirus lassaense.
The mark [46] stands for this setting: source organism: Salmonella enterica subsp. arizonae serovar 62:z4,z23:-.
The mark [47] stands for this setting: source organism: Yersinia enterocolitica.
[48] abbreviates: source organism: dengue virus type 4.

As usually defined, the Kd is the constant that tells how readily two partners part at equilibrium.

Regarding CSDSDGLAP, the Kd in assay [1] (source organism: Homo sapiens), in assay [2] and in assay [3] (source organism: Homo sapiens) was ≥ 20000 nM in each case.
On to CTDPPLLSV, for which the Kd in [4] (setting [43]) was 1050 nM; in assay [5] (setting [44]) it was ≥ 20000 nM; in assay [6] (setting [44]), ≥ 20000 nM; in assay [7] (setting [44]), ≥ 20000 nM; in assay [8] (setting [44]) it was ≥ 20000 nM; in [9] (setting [43]), ≥ 20000 nM. Also, the Kd in [10] (setting [44]) was ≥ 20000 nM; in assay [11] (setting [44]), ≥ 20000 nM; in assay [12] (setting [43]) it was 23 nM; in assay [13], ≥ 20000 nM; in assay [14] (setting [44]) it was ≥ 20000 nM; in [15] (setting [43]), 529 nM. Further, the Kd in [16] (setting [44]) was ≥ 20000 nM; in assay [17] (setting [44]), ≥ 20000 nM; in assay [18] (setting [44]) it was 6980 nM; in assay [19] (setting [44]), 526 nM; in assay [20] (setting [44]), ≥ 20000 nM.
Regarding ESPSSIWVF, the equilibrium dissociation constant (Kd) in [1] (source organism: Hantaan virus 76-118) amounted to 2330 nM; in [21], 145 nM; in assay [22], 1220 nM; in [17] (source organism: Amur virus), 5.8 nM.
With ISEMLSKEY, the Kd in assay [3] (source organism: Mammarenavirus machupoense) was found to be 8000 nM; in assay [23], 179 nM; in [18] (source organism: Mammarenavirus cupixiense), 545 nM.
Regarding LIDGRTSFY, the Kd in assay [24] (setting [45]) was ≥ 5000 nM; in assay [25] (setting [45]), ≥ 5000 nM; in assay [26] (setting [45]), ≥ 5000 nM; in [27], 14400 nM; in [28] (setting [45]), ≥ 77800 nM; in assay [29], 1210 nM. Also, the Kd was 1150 nM in [30], ≥ 51300 nM in assay [31], 14.8 nM in assay [3] (setting [45]) and 0.9 nM in [18] (setting [45]).
RIYSHIAPY: the Kd was 562 nM in [4] (setting [46]); 109 nM in assay [5] (setting [47]); ≥ 20000 nM in assay [32]; 36.8 nM in [6] (setting [47]); 723 nM in [7] (setting [47]); ≥ 20000 nM in assay [8] (setting [47]). For the same sequence, the Kd in [33] is ≥ 20000 nM; in assay [9] (setting [46]), ≥ 20000 nM; in assay [34], 126 nM; in assay [10] (setting [47]), 46.7 nM; in assay [11] (setting [47]) it was 31.2 nM; in assay [35], ≥ 20000 nM. Also, the Kd in assay [12] (setting [46]) was 221 nM; in assay [14] (setting [47]), ≥ 20000 nM; in [15] (setting [46]) it was 475 nM; in [16] (setting [47]), ≥ 20000 nM; in assay [18] (setting [47]), ≥ 20000 nM; in assay [19] (setting [47]), 1970 nM. Further, the Kd in assay [20] (setting [47]) worked out at 58 nM.
RVLENTHIF: the Kd in assay [36] is 2.9 nM; in [1] (source organism: Encephalitozoon cuniculi GB-M1) it was 222 nM.
Regarding STMPLVMAW, the Kd is ≥ 5000 nM in assay [24] (setting [48]); ≤ 1 nM in [37]; 0.6 nM in assay [38]; 1140 nM in [25] (setting [48]); 22.7 nM in assay [39]; ≥ 5000 nM in assay [26] (setting [48]). Further, the dissociation constant Kd is 10.6 nM in assay [40], 1.69 nM in assay [28] (source organism: Dengue virus 4 Philippines/H241/1956), 5.2 nM in assay [41] and ≤ 1 nM in [42].

Source of the values: the Immune Epitope Database (IEDB).
